molecular target: T1, NRAS (human, UniProt P01111 1-174, limits assumed); assay: yeast display, cells sorted for binding to NRAS (WT);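 note: Yeast-displayed monobody variants with one or two residue substitutions, monobody sequences read from cells recovered by sorting for binding to wild-type NRAS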
T1 construct: also called Neuroblastoma-RAS; NRAS (WT)

Row | binding result | Binder
1 | binds | Mb(NRAS_24) with the FG loop of SEQ ID NO: 15 (designed binder, length of the loop entry not visible) VSSVPTKLEVVAATPTSLLISWDAPAVTVDFYVITYGETGGYAWAYQEFKVPGSKSTATISGLSPGVDYTITVYASQVIGAIWKYYSPISINYRT
2 | binds | Mb(NRAS_24) with the FG loop of SEQ ID NO: 16 (designed binder, length of the loop entry not visible) VSSVPTKLEVVAATPTSLLISWDAPAVTVDFYVITYGETGGYAWAYQEFKVPGSKSTATISGLSPGVDYTITVYAYHVIGAIWKYYSPISINYRT
3 | binds | Mb(NRAS_24) with the FG loop of SEQ ID NO: 21 (designed binder, length of the loop entry not visible) VSSVPTKLEVVAATPTSLLISWDAPAVTVDFYVITYGETGGYAWAYQEFKVPGSKSTATISGLSPGVDYTITVYAYQILGAIWKYYSPISINYRT
4 | binds | Mb(NRAS_24) with the FG loop of SEQ ID NO: 50 (designed binder, length of the loop entry not visible) VSSVPTKLEVVAATPTSLLISWDAPAVTVDFYVITYGETGGYAWAYQEFKVPGSKSTATISGLSPGVDYTITVYAYQVIKHIWKYYSPISINYRT
5 | binds | Mb(NRAS_24) with the FG loop of SEQ ID NO: 31 (designed binder, length of the loop entry not visible) VSSVPTKLEVVAATPTSLLISWDAPAVTVDFYVITYGETGGYAWAYQEFKVPGSKSTATISGLSPGVDYTITVYAYQTEGAIWKYYSPISINYRT
6 | binds | Mb(NRAS_24) with the FG loop of SEQ ID NO: 36 (designed binder, length of the loop entry not visible) VSSVPTKLEVVAATPTSLLISWDAPAVTVDFYVITYGETGGYAWAYQEFKVPGSKSTATISGLSPGVDYTITVYAYQVIAHIWKYYSPISINYRT
7 | binds | Mb(NRAS_24) with the FG loop of SEQ ID NO: 51 (designed binder, length of the loop entry not visible) VSSVPTKLEVVAATPTSLLISWDAPAVTVDFYVITYGETGGYAWAYQEFKVPGSKSTATISGLSPGVDYTITVYAYQVIKSIWKYYSPISINYRT
8 | binds | Mb(NRAS_24) with the FG loop of SEQ ID NO: 46 (designed binder, length of the loop entry not visible) VSSVPTKLEVVAATPTSLLISWDAPAVTVDFYVITYGETGGYAWAYQEFKVPGSKSTATISGLSPGVDYTITVYAYQVIGALWKYYSPISINYRT
9 | binds | Mb(NRAS_24) with the FG loop of SEQ ID NO: 48 (designed binder, length of the loop entry not visible) VSSVPTKLEVVAATPTSLLISWDAPAVTVDFYVITYGETGGYAWAYQEFKVPGSKSTATISGLSPGVDYTITVYAYQVIHSIWKYYSPISINYRT
10 | binds | Mb(NRAS_24) with the FG loop of SEQ ID NO: 52 (designed binder, length of the loop entry not visible) VSSVPTKLEVVAATPTSLLISWDAPAVTVDFYVITYGETGGYAWAYQEFKVPGSKSTATISGLSPGVDYTITVYAYQVIKYIWKYYSPISINYRT
11 | binds | Mb(NRAS_24) with the FG loop of SEQ ID NO: 28 (designed binder, length of the loop entry not visible) VSSVPTKLEVVAATPTSLLISWDAPAVTVDFYVITYGETGGYAWAYQEFKVPGSKSTATISGLSPGVDYTITVYAYQLLGAIWKYYSPISINYRT
12 | binds | Mb(NRAS_24) with the FG loop of SEQ ID NO: 18 (designed binder, length of the loop entry not visible) VSSVPTKLEVVAATPTSLLISWDAPAVTVDFYVITYGETGGYAWAYQEFKVPGSKSTATISGLSPGVDYTITVYAYQIEGAIWKYYSPISINYRT
13 | binds | Mb(NRAS_24) with the FG loop of SEQ ID NO: 25 (designed binder, length of the loop entry not visible) VSSVPTKLEVVAATPTSLLISWDAPAVTVDFYVITYGETGGYAWAYQEFKVPGSKSTATISGLSPGVDYTITVYAYQLDGAIWKYYSPISINYRT
14 | binds | Mb(NRAS_24) with the FG loop of SEQ ID NO: 29 (designed binder, length of the loop entry not visible) VSSVPTKLEVVAATPTSLLISWDAPAVTVDFYVITYGETGGYAWAYQEFKVPGSKSTATISGLSPGVDYTITVYAYQLYGAIWKYYSPISINYRT
15 | binds | Mb(NRAS_24) with the FG loop of SEQ ID NO: 40 (designed binder, length of the loop entry not visible) VSSVPTKLEVVAATPTSLLISWDAPAVTVDFYVITYGETGGYAWAYQEFKVPGSKSTATISGLSPGVDYTITVYAYQVIDSIWKYYSPISINYRT
16 | binds | Mb(NRAS_24) with the FG loop of SEQ ID NO: 38 (designed binder, length of the loop entry not visible) VSSVPTKLEVVAATPTSLLISWDAPAVTVDFYVITYGETGGYAWAYQEFKVPGSKSTATISGLSPGVDYTITVYAYQVIAYIWKYYSPISINYRT
17 | binds | Mb(NRAS_24) with the FG loop of SEQ ID NO: 32 (designed binder, length of the loop entry not visible) VSSVPTKLEVVAATPTSLLISWDAPAVTVDFYVITYGETGGYAWAYQEFKVPGSKSTATISGLSPGVDYTITVYAYQTHGAIWKYYSPISINYRT
18 | binds | Mb(NRAS_24) with the FG loop of SEQ ID NO: 30 (designed binder, length of the loop entry not visible) VSSVPTKLEVVAATPTSLLISWDAPAVTVDFYVITYGETGGYAWAYQEFKVPGSKSTATISGLSPGVDYTITVYAYQTDGAIWKYYSPISINYRT
19 | binds | Mb(NRAS_24) with the FG loop of SEQ ID NO: 26 (designed binder, length of the loop entry not visible) VSSVPTKLEVVAATPTSLLISWDAPAVTVDFYVITYGETGGYAWAYQEFKVPGSKSTATISGLSPGVDYTITVYAYQLEGAIWKYYSPISINYRT

Row | binding result | Binder
20 | binds | Mb(NRAS_24) with the FG loop of SEQ ID NO: 24 (designed binder, length of the loop entry not visible) VSSVPTKLEVVAATPTSLLISWDAPAVTVDFYVITYGETGGYAWAYQEFKVPGSKSTATISGLSPGVDYTITVYAYQIYGAIWKYYSPISINYRT
21 | binds | Mb(NRAS_24) with the FG loop of SEQ ID NO: 23 (designed binder, length of the loop entry not visible) VSSVPTKLEVVAATPTSLLISWDAPAVTVDFYVITYGETGGYAWAYQEFKVPGSKSTATISGLSPGVDYTITVYAYQIVGAIWKYYSPISINYRT
22 | binds | Mb(NRAS_24) with the FG loop of SEQ ID NO: 45 (designed binder, length of the loop entry not visible) VSSVPTKLEVVAATPTSLLISWDAPAVTVDFYVITYGETGGYAWAYQEFKVPGSKSTATISGLSPGVDYTITVYAYQVIGAICKYYSPISINYRT
23 | binds | Mb(NRAS_24) with the FG loop of SEQ ID NO: 41 (designed binder, length of the loop entry not visible) VSSVPTKLEVVAATPTSLLISWDAPAVTVDFYVITYGETGGYAWAYQEFKVPGSKSTATISGLSPGVDYTITVYAYQVIDYIWKYYSPISINYRT
24 | binds | Mb(NRAS_24) with the FG loop of SEQ ID NO: 44 (designed binder, length of the loop entry not visible) VSSVPTKLEVVAATPTSLLISWDAPAVTVDFYVITYGETGGYAWAYQEFKVPGSKSTATISGLSPGVDYTITVYAYQVIEYIWKYYSPISINYRT
25 | binds | Mb(NRAS_24) with the FG loop of SEQ ID NO: 34 (designed binder, length of the loop entry not visible) VSSVPTKLEVVAATPTSLLISWDAPAVTVDFYVITYGETGGYAWAYQEFKVPGSKSTATISGLSPGVDYTITVYAYQTVGAIWKYYSPISINYRT
26 | binds | Mb(NRAS_24) with the FG loop of SEQ ID NO: 37 (designed binder, length of the loop entry not visible) VSSVPTKLEVVAATPTSLLISWDAPAVTVDFYVITYGETGGYAWAYQEFKVPGSKSTATISGLSPGVDYTITVYAYQVIASIWKYYSPISINYRT
27 | binds | Mb(NRAS_24) with the FG loop of SEQ ID NO: 22 (designed binder, length of the loop entry not visible) VSSVPTKLEVVAATPTSLLISWDAPAVTVDFYVITYGETGGYAWAYQEFKVPGSKSTATISGLSPGVDYTITVYAYQIRGAIWKYYSPISINYRT
28 | binds | Mb(NRAS_24) with the FG loop of SEQ ID NO: 19 (designed binder, length of the loop entry not visible) VSSVPTKLEVVAATPTSLLISWDAPAVTVDFYVITYGETGGYAWAYQEFKVPGSKSTATISGLSPGVDYTITVYAYQIHGAIWKYYSPISINYRT
29 | binds | Mb(NRAS_24) with the FG loop of SEQ ID NO: 47 (designed binder, length of the loop entry not visible) VSSVPTKLEVVAATPTSLLISWDAPAVTVDFYVITYGETGGYAWAYQEFKVPGSKSTATISGLSPGVDYTITVYAYQVIHHIWKYYSPISINYRT
30 | binds | Mb(NRAS_24) with the FG loop of SEQ ID NO: 49 (designed binder, length of the loop entry not visible) VSSVPTKLEVVAATPTSLLISWDAPAVTVDFYVITYGETGGYAWAYQEFKVPGSKSTATISGLSPGVDYTITVYAYQVIHYIWKYYSPISINYRT
31 | binds | Mb(NRAS_24) with the FG loop of SEQ ID NO: 35 (designed binder, length of the loop entry not visible) VSSVPTKLEVVAATPTSLLISWDAPAVTVDFYVITYGETGGYAWAYQEFKVPGSKSTATISGLSPGVDYTITVYAYQTYGAIWKYYSPISINYRT
32 | binds | Mb(NRAS_24) with the FG loop of SEQ ID NO: 39 (designed binder, length of the loop entry not visible) VSSVPTKLEVVAATPTSLLISWDAPAVTVDFYVITYGETGGYAWAYQEFKVPGSKSTATISGLSPGVDYTITVYAYQVIDHIWKYYSPISINYRT
33 | binds | Mb(NRAS_24) with the FG loop of SEQ ID NO: 42 (designed binder, length of the loop entry not visible) VSSVPTKLEVVAATPTSLLISWDAPAVTVDFYVITYGETGGYAWAYQEFKVPGSKSTATISGLSPGVDYTITVYAYQVIEHIWKYYSPISINYRT
34 | binds | Mb(NRAS_24) with the FG loop of SEQ ID NO: 43 (designed binder, length of the loop entry not visible) VSSVPTKLEVVAATPTSLLISWDAPAVTVDFYVITYGETGGYAWAYQEFKVPGSKSTATISGLSPGVDYTITVYAYQVIESIWKYYSPISINYRT
35 | binds | Mb(NRAS_24) with the FG loop of SEQ ID NO: 33 (designed binder, length of the loop entry not visible) VSSVPTKLEVVAATPTSLLISWDAPAVTVDFYVITYGETGGYAWAYQEFKVPGSKSTATISGLSPGVDYTITVYAYQTLGAIWKYYSPISINYRT
36 | binds | Mb(NRAS_24) with the FG loop of SEQ ID NO: 17 (designed binder, length of the loop entry not visible) VSSVPTKLEVVAATPTSLLISWDAPAVTVDFYVITYGETGGYAWAYQEFKVPGSKSTATISGLSPGVDYTITVYAYQIDGAIWKYYSPISINYRT
37 | binds | Mb(NRAS_24) with the FG loop of SEQ ID NO: 20 (designed binder, length of the loop entry not visible) VSSVPTKLEVVAATPTSLLISWDAPAVTVDFYVITYGETGGYAWAYQEFKVPGSKSTATISGLSPGVDYTITVYAYQIKGAIWKYYSPISINYRT
38 | binds | Mb(NRAS_24) with the FG loop of SEQ ID NO: 27 (designed binder, length of the loop entry not visible) VSSVPTKLEVVAATPTSLLISWDAPAVTVDFYVITYGETGGYAWAYQEFKVPGSKSTATISGLSPGVDYTITVYAYQLHGAIWKYYSPISINYRT
